From patent publication US20250136696A1 (HARBOUR BIOMED SHANGHAI, published 2025)

Experiments:
[1] = molecular target: T1, biotinylated human B7-H7 protein (Acro Biosystems, B77-H82F5) (human, UniProt Q9UM44 23-344, biotinylated); assay: BLI epitope competition on SA-captured biotinylated B7-H7; competitor (first antibody) PR003251
T1 construct: Bought soluble protein; also called biotin-B7H7 protein
T1 sequence (looked up): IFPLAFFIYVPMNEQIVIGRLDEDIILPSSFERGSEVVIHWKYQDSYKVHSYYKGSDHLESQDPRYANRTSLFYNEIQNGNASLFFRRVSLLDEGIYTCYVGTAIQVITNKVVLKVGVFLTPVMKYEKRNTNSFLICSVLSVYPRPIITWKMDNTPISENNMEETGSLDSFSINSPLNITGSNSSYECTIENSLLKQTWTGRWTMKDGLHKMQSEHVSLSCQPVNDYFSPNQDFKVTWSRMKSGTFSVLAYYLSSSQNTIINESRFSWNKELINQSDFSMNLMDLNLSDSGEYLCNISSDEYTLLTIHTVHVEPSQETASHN
Experimental: Epitope competition experiments were performed on the anti-B7-H7 antibodies using the ForteBio Octet Red96e platform with the same experimental buffer as described above. […] After being equilibrated in a buffer for 120 s, the sensors were immersed in various antibodies diluted to 100 nM for 240 s, and the final signal of the antibody binding to B7-H7 was recorded as the 100% signal for that antibody. Second step, epitope competition experiment: B7-H7 was captured using SA sensors at a capture height of 0.25 nm. The sensors were immersed in a first antibody (concentration: 100 nM) for 240 s, then the SA sensors were immersed in a mixture of the first antibody and a second antibody (final concentration of both antibodies: 100 nM) for 240 s, and the difference in signals before and after immersing the sensors in the mixture of the two antibodies was recorded as the signal for that antibody as the second antibody. The inhibition rate was calculated by the following equation, […]

[2] = molecular target: T1, biotinylated human B7-H7 protein (Acro …); assay: flow cytometry, blocking of biotinylated human B7-H7 binding to CHO-K1/KIR3DL3 cells
Description: This example was intended to study the in vitro blocking activity of human anti-B7-H7 antibodies against the binding of human B7-H7 to its receptor KIR3DL3. A CHO-K1 cell (CHO-K1/KIR3DL3, Harbour BioMed US, Inc.) overexpressing human KIR3DL3 was used in experiments at the cellular level where human B7-H7/human KIR3DL3 binding was blocked. Briefly, the CHO-K1/KIR3DL3 cells were digested and resuspended in PBS containing 2% BSA. The cells were adjusted to a cell density of 1×10⁶ cells/mL. […] The cells were incubated at 4° C. for 1 hour in the dark. […] The cells were rinsed twice by adding pre-chilled PBS containing 2% BSA at 100 μL/well, and were centrifuged at 500 g at 4° C. for 5 minutes, and the supernatant was discarded. A fluorescent secondary antibody (PE Streptavidin, BD, Cat #: 554061, 1:200) was added at 100 μL/well, and the cells were incubated at 4° C. for 30 minutes in the dark. The cells were washed twice by adding pre-chilled PBS at 200 µL/well, and centrifuged at 500 g at 4° C. for 5 minutes, and the supernatant was discarded. Finally, the cells were resuspended in pre-chilled PBS at 200 μL/well, and the fluorescence signal values were read using an ACEA Novocyte3000 flow cytometer. IC50 was calculated.

[3] = molecular target: T2, human B7-H7 on the cell surface (human, UniProt Q9UM44 23-414); assay: flow cytometry, HEK-293/hu B7-H7 cells
T2 construct: whole, on cells; also called hB7-H7; hu B7-H7
T2 sequence (looked up): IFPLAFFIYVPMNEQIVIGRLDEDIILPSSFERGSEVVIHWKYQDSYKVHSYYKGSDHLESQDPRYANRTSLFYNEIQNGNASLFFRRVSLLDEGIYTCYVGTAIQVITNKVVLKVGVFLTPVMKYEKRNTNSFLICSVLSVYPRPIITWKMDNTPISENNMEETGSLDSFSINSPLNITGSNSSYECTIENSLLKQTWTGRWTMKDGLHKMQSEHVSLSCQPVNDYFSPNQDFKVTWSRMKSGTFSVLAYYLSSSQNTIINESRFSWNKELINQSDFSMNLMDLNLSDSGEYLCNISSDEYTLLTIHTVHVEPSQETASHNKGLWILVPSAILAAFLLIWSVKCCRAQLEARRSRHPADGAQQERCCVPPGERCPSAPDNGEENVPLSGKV
Experimental: This example was intended to study the in vitro activity of H2L2 monoclonal antibodies against human B7-H7 in binding to human/cynomolgus monkey B7-H7. Since homologous molecules of B7-H7 were not present in mice, the detection was not performed. […] The cells were adjusted to a cell density of 1×10⁶ cells/mL, respectively. The cells were seeded in a 96-well V-bottom plate (Corning, #3894) at 100 μL/well, and the antibody to be tested at 2× final concentration with 3-fold concentration gradient dilution was then added at 100 μL/well. The cells were incubated at 4° C. for 2 hours in the dark. After the incubation, the cells were rinsed twice by adding pre-chilled PBS containing 2% BSA at 100 μl/well, and centrifuged at 500 g at 4° C. for 5 minutes, and the supernatant was discarded. […] The cells were washed twice by adding pre-chilled PBS containing 2% BSA at 100 μL/well, and centrifuged at 500 g at 4° C. for 5 minutes, and the supernatant was discarded. Finally, the cells were resuspended in pre-chilled PBS containing 2% BSA at 200 μL/well, and the fluorescence signal values were read using an ACEA Novocyte3000 flow cytometer.

| Binder | Competitive inhibition rate (%) [1] | IC50 [2] | Maximum inhibition rate (%) [2] | EC50 [3] | Maximum MFI [3] |
| --- | --- | --- | --- | --- | --- |
| PR003260 (antibody, human IgG1, kappa, V domains shown, Human IgG1; also called 70F3B1) VH: QVQLVESGGGVVQPGRSLRLPCAASGFTFSRYGMHWVRQAPGKGLEWVADIWYDGSKKYYADSVKGRFTISRDNSKNTLYLQMNSLRAEDTAVYFCTRDGGYSYGPFDYWGQGTLVTVSS VL: EIVMTQSPATLSVSPGERATLSCRASQSVSSNLAWYQQKPGQAPRLLIYYASTRAPGIPARFSGSESGTEFTLTISSLQSEDFAVYYCQQYNIWPYTFGQGTKLEIKR | 100% | 6.46 nM | 106% | 1.13 nM | 807000 MFI |
| PR003263 (antibody, human IgG1, kappa, V domains shown, Human IgG1; also called 77E6C4) VH: QVQLVESGGGVVQPGRSLRLSCAASGFTFSYYGLNWVRQAPGKGLEWVAVIWFDGTNKYYADSVKGRFTISRDDSKNTLYLQMNSLRAEDTAVYYCARGYGSGSYYNYVMDAWGQGASVTVSS VL: EIVMTQSPATLSVSPGERATLSCRASQSVSSNLAWYQQKPGQAPRLLIYGASTGATGIPARFSGSGSGTDFTLTISSLQSEDFAVYYCQQYYKWPLTFGGGTKVEIKR | 96.9% | 6.23 nM | 103% | 1.06 nM | 763000 MFI |
| PR003251 (antibody, human IgG1, kappa, V domains shown, Human IgG1; also called 29F2C8) VH: QVQLVESGGGVVQPGRSLRLSCAVSGFTFSRYGMHWVRQAPGKGLDWVAVIWYNGNNKYYTDSVKGRFTISRDNSKNTLFLQMNSLRAEDTAVYYCARDGAYSYGPFDYWGQGTLVTVSS VL: not shown | 97.9% | 6.34 nM | 96.4% | 1.07 nM | 813000 MFI |
| PR003254 (antibody, human IgG1, kappa, V domains shown, Human IgG1; also called 59D6D2) VH: QVQLVESGGGVVQPGRSLRLSCAASGFTFSSYGMHWVRQAPGKGLEWVADIWYNGNNKYYADSVKGRFTISRDNSKNTLYLQMNSLRAEDTALYYCARDGGYSYGPFDYWGQGTLVTVSS VL: not shown | 99.1% | 7.18 nM | 97.2% | 1.95 nM | 762000 MFI |
| PR003262 (antibody, human IgG1, kappa, V domains shown, Human IgG1; also called 77D5A4) VH: QVQLVESGGGVVQPGRSLRLSCAASGFTFSRYGIHWVRQAPGKGLEWVAVIWYNGRNKYYVDSVKGRFTISRDNSKNTLYLQMNSLRAEDTAVYYCARDGGYSYGPFDYWGQGTLVTVSS VL: EIVMTQSPATLSVSPGERATLSCRASQSFSNNLAWYQQKPGQAPRLLIYGASTRATGIPARFSGSGSGTEFTLTISSLQSEDFAVYYCHQYNIWPLTFGGGTKVEIKR | 96.4% | 9.93 nM | 105% | 1.33 nM | 822000 MFI |
| PR004260 (antibody, human IgG1, kappa, L234A L235A, Variant of PR003181; Human IgG1 with LALA mutation in Fc) heavy: not shown light: DIVMSQSPSSLAVSAGEKVTMSCKSSQSLLNSRTRKNQLAWYQQKPGQSPKLLIYWASTRESGVPDRFTGSGSGTDFTLTISSVQAEDLAVYYCKQSYNLRTFGGGTKLEIKRTVAAPSVFIFPPSDEQLKSGTASVVCLLNNFYPREAKVQWKVDNALQSGNSQESVTEQDSKDSTYSLSSTLTLSKADYEKHKVYACEVTHQGLSSPVTKSFNRGEC | – | 8.51 nM | 96.2% | – | – |
| PR003264 (antibody, human IgG1, kappa, Human IgG1; also called 77G10D3) heavy: not shown light: DIQLTQSPSFLSASVGDRVTITCRASQGISSYFAWYQQKPGKAPKLLIYAASTLQSGVPSRFSGSGSGTEFTLTISSLQPEDFATYYCQHLNRYPWTFGQGTKVEIKRTVAAPSVFIFPPSDEQLKSGTASVVCLLNNFYPREAKVQWKVDNALQSGNSQESVTEQDSKDSTYSLSSTLTLSKADYEKHKVYACEVTHQGLSSPVTKSFNRGEC | – | 8.56 nM | 104% | 1.68 nM | 756000 MFI |
| PR004263 (antibody, human IgG1, kappa, L234A L235A, Variant of PR003264; Human IgG1 with LALA mutation in Fc) heavy: not shown light: DIQLTQSPSFLSASVGDRVTITCRASQGISSYFAWYQQKPGKAPKLLIYAASTLQSGVPSRFSGSGSGTEFTLTISSLQPEDFATYYCQHLNRYPWTFGQGTKVEIKRTVAAPSVFIFPPSDEQLKSGTASVVCLLNNFYPREAKVQWKVDNALQSGNSQESVTEQDSKDSTYSLSSTLTLSKADYEKHKVYACEVTHQGLSSPVTKSFNRGEC | – | 8.77 nM | 99.9% | – | – |
